The subject of series [1] is Saccharomyces cerevisiae. Nature of the series: protein stability index of tFT-peptide fusion (C-terminal peptide) (PSI (0-1 scale)); higher = more stable (slower turnover). The conditions noted are these: genetic background: wild type; temperature: 30 C.
The subject of series [2] is Saccharomyces cerevisiae. Described as above. Here is the method:
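MPS profiling in S. cerevisiae of the tFT-X12 degron library: putative degron peptides plus stable controls, 12 aa, fused to the C-terminus of a sfGFP-mCherry timer. Cells are FACS-sorted into 8 mCherry/sfGFP bins and deep-sequenced. PSI runs from 0 (unstable) to 1 (stable). Backgrounds are wild type, das1Δ and doa10Δ at 30 °C, and wild type, das1Δ, cdc34-1 and cdc53-1 at 37 °C; 2-3 technical replicates each.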

Where [3] appears, read: genetic background: cdc34-1, temperature: 37 C.
The mark [4] stands for this setting: genetic background: cdc53-1, temperature: 37 C.
[5] abbreviates: genetic background: das1 deletion, temperature: 30 C.
Where [6] appears, read: genetic background: das1 deletion, temperature: 37 C.
Setting [7] is: genetic background: doa10 deletion, temperature: 30 C.
Where [8] appears, read: genetic background: wild type, temperature: 30 C.
[9] abbreviates: genetic background: wild type, temperature: 37 C.

± gives the standard deviation of the averaged measurements.
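Also: PSI is a weighted mean of sequencing reads over stability bins, variants kept only with over 10 reads, mCherry proximal and sfGFP distal, peptide attached via GGGS linker.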

For CALLLLSVRAGQ, the protein stability index in series [1] came to 0.474 ± 0.019; in series [2] (setting [3]) it was 0.5373 ± 0.00093; in series [2] (setting [4]) it was 0.57 ± 0.02; in series [2] (setting [5]), 0.432 ± 0.04; in series [2] (setting [6]) it was 0.5912 ± 0.0029; in series [2] (setting [7]), 0.415 ± 0.032. The protein stability index in series [2] (setting [8]) amounted to 0.433 ± 0.024; in series [2] (setting [9]), 0.565 ± 0.02.

As to CCSRFLMLRILV, the protein stability index in series [1] is 0.146 ± 0.014; in series [2] (setting [3]) it was 0.197 ± 0.062; in series [2] (setting [4]) it was 0.208 ± 0.015; in series [2] (setting [5]), 0.287 ± 0.041; in series [2] (setting [6]), 0.438 ± 0.026; in series [2] (setting [7]) it was 0.118 ± 0.0037. Further, the protein stability index came out at 0.1 ± 0.0099 in series [2] (setting [8]) and 0.126 ± 0.0093 in series [2] (setting [9]).

On to CFFFCSLFLSFL, for which the protein stability index amounted to 0.3662 ± 0.0032 in series [1]; 0.439 ± 0.022 in series [2] (setting [3]); 0.452 ± 0.011 in series [2] (setting [4]); 0.436 ± 0.022 in series [2] (setting [5]); 0.498 ± 0.01 in series [2] (setting [6]); 0.4065 ± 0.001 in series [2] (setting [7]). The protein stability index in series [2] (setting [8]) was found to be 0.35 ± 0.0098; in series [2] (setting [9]), 0.431 ± 0.015.

As for CFFMVGFVFYFV, the protein stability index was 0.296 ± 0.014 in series [1]; 0.286 ± 0.031 in series [2] (setting [3]); 0.412 ± 0.027 in series [2] (setting [4]); 0.291 ± 0.039 in series [2] (setting [5]); 0.505 ± 0.017 in series [2] (setting [6]); 0.288 ± 0.014 in series [2] (setting [7]). Moreover, the protein stability index in series [2] (setting [8]) is 0.294 ± 0.03; in series [2] (setting [9]), 0.438 ± 0.0094.

Take CFFSLLLLIFSV: the protein stability index in series [1] worked out at 0.377 ± 0.032; in series [2] (setting [3]) it was 0.4101 ± 0.0016; in series [2] (setting [4]), 0.412 ± 0.024; in series [2] (setting [5]) it was 0.311 ± 0.041; in series [2] (setting [6]) it was 0.4838 ± 0.0022; in series [2] (setting [7]) it was 0.3486 ± 0.0032. The protein stability index in series [2] (setting [8]) stood at 0.31 ± 0.017; in series [2] (setting [9]) it was 0.4476 ± 0.0032.

Take CFLLVSLGILCW: the protein stability index stood at 0.176 ± 0.094 in series [1]; 0.0312 ± 0.00089 in series [2] (setting [3]); 0.0425 ± 0.02 in series [2] (setting [4]); 0.109 ± 0.036 in series [2] (setting [5]); 0.121 ± 0.003 in series [2] (setting [6]); 0.0685 ± 0.035 in series [2] (setting [7]). Further, the values for the protein stability index in series [2] (setting [8]) and in series [2] (setting [9]) were 0.106 ± 0.034 and 0.0931 ± 0.026, respectively.

In the case of CFPFYVSCLLVL, the protein stability index in series [1] was 0.321 ± 0.027; in series [2] (setting [3]), 0.3061 ± 0.0023; in series [2] (setting [4]) it was 0.311 ± 0.0064; in series [2] (setting [5]), 0.281 ± 0.029; in series [2] (setting [6]) it was 0.405 ± 0.019; in series [2] (setting [7]), 0.25 ± 0.0066. For the same sequence, the results for the protein stability index in series [2] (setting [8]) and in series [2] (setting [9]) were 0.256 ± 0.02 and 0.351 ± 0.0055, respectively.

On to CFTLSLCLAFFF, for which the protein stability index amounted to 0.377 ± 0.014 in series [1]; 0.41 ± 0.026 in series [2] (setting [3]); 0.455 ± 0.013 in series [2] (setting [4]); 0.403 ± 0.03 in series [2] (setting [5]); 0.433 ± 0.0072 in series [2] (setting [6]); 0.324 ± 0.017 in series [2] (setting [7]). The protein stability index came to 0.334 ± 0.026 in series [2] (setting [8]) and 0.4091 ± 0.0024 in series [2] (setting [9]).

Regarding CGLLSALSCLVF, the protein stability index came out at 0.511 ± 0.02 in series [1]; 0.507 ± 0.033 in series [2] (setting [3]); 0.54 ± 0.011 in series [2] (setting [4]); 0.442 ± 0.019 in series [2] (setting [5]); 0.5533 ± 0.0036 in series [2] (setting [6]); 0.4185 ± 0.0022 in series [2] (setting [7]). Besides, the protein stability index in series [2] (setting [8]) turned out to be 0.45 ± 0.017; in series [2] (setting [9]) it was 0.552 ± 0.023.

As for CIVFVYCLFSCP, the protein stability index came out at 0.32 ± 0.0041 in series [1]; 0.206 ± 0.0051 in series [2] (setting [3]); 0.301 ± 0.038 in series [2] (setting [4]); 0.213 ± 0.024 in series [2] (setting [5]); 0.406 ± 0.041 in series [2] (setting [6]); 0.209 ± 0.0024 in series [2] (setting [7]). Moreover, the protein stability index in series [2] (setting [8]) was 0.207 ± 0.036; in series [2] (setting [9]), 0.332 ± 0.027.

As to CKRWGVVSYVFV, the protein stability index worked out at 0.493 ± 0.017 in series [1]; 0.601 ± 0.069 in series [2] (setting [3]); 0.6545 ± 0.0054 in series [2] (setting [4]); 0.464 ± 0.025 in series [2] (setting [5]); 0.655 ± 0.0067 in series [2] (setting [6]); 0.418 ± 0.025 in series [2] (setting [7]). In addition, the protein stability index came out at 0.441 ± 0.024 in series [2] (setting [8]) and 0.61 ± 0.0099 in series [2] (setting [9]).

Turning to CLCFFLICFILF, the protein stability index in series [1] turned out to be 0.3151 ± 0.002; in series [2] (setting [3]) it was 0.252 ± 0.0092; in series [2] (setting [4]), 0.255 ± 0.011; in series [2] (setting [5]), 0.235 ± 0.019; in series [2] (setting [6]), 0.391 ± 0.027; in series [2] (setting [7]), 0.248 ± 0.0026. Further, the protein stability index in series [2] (setting [8]) amounted to 0.219 ± 0.032; in series [2] (setting [9]) it was 0.333 ± 0.016.

For the sequence CLCFFMSILWWV, the protein stability index in series [1] amounted to 0.4269 ± 0.0011; in series [2] (setting [3]), 0.4741 ± 0.0038; in series [2] (setting [4]), 0.498 ± 0.017; in series [2] (setting [5]) it was 0.434 ± 0.035; in series [2] (setting [6]), 0.5222 ± 0.0016; in series [2] (setting [7]), 0.422 ± 0.015. Also, the results for the protein stability index in series [2] (setting [8]) and in series [2] (setting [9]) were 0.374 ± 0.019 and 0.478 ± 0.0048, respectively.

For the sequence CLCVLVSFFFGL, the protein stability index in series [1] stood at 0.288 ± 0.074; in series [2] (setting [3]) it was 0.41 ± 0.037; in series [2] (setting [4]) it was 0.489 ± 0.041; in series [2] (setting [5]), 0.35 ± 0.024; in series [2] (setting [6]), 0.5006 ± 0.0024; in series [2] (setting [7]), 0.316 ± 0.024. The protein stability index in series [2] (setting [8]) is 0.323 ± 0.027; in series [2] (setting [9]), 0.4768 ± 0.0016.

On to CLFHQFITLLVN, for which the protein stability index was found to be 0.0965 ± 0.019 in series [1]; 0.0942 ± 0.009 in series [2] (setting [3]); 0.177 ± 0.012 in series [2] (setting [4]); 0.222 ± 0.026 in series [2] (setting [5]); 0.2692 ± 0.0019 in series [2] (setting [6]); 0.0508 ± 0.017 in series [2] (setting [7]). The protein stability index in series [2] (setting [8]) was determined as 0.0593 ± 0.0052; in series [2] (setting [9]), 0.0523 ± 0.01.

In the case of CLFLNCRFYMFL, the protein stability index amounted to 0.821 ± 0.035 in series [1]; 0.951 ± 0.021 in series [2] (setting [3]); 0.898 ± 0.065 in series [2] (setting [4]); 0.808 ± 0.04 in series [2] (setting [5]); 0.89 ± 0.024 in series [2] (setting [6]); 0.788 ± 0.014 in series [2] (setting [7]). For the same sequence, the figures for the protein stability index in series [2] (setting [8]) and in series [2] (setting [9]) were 0.796 ± 0.036 and 0.905 ± 0.011, respectively.

Values taken from the supplement of paper PMC10724198.
